US20240092942A1

Tests used:
[1] = target: huFcγRIIb on CHO^huFcγRIIb cells; experiment: flow cytometry on CHO^huFcγRIIb cells, anti-huCD32 mAb + PE-GAM F(ab')2; histogram peak at about 1.5e3; parental CHO cells: 86 printed
[2] = target: PD-L1 on MDA-MB-231 cells (Homo sapiens) (UniProt Q9NZQ7); experiment: flow cytometry on MDA-MB-231 cells, APC-conjugated anti-huPD-L1 mAb; histogram peak at about 3e3 against control at about 2.5e2; 3T3^huEGFR cells (PD-L1 negative): 0 printed [cont.) g, lower panel]
PD-L1 on MDA-MB-231 cells (Homo sapiens), sequence (Q9NZQ7 19-290 limits assumed): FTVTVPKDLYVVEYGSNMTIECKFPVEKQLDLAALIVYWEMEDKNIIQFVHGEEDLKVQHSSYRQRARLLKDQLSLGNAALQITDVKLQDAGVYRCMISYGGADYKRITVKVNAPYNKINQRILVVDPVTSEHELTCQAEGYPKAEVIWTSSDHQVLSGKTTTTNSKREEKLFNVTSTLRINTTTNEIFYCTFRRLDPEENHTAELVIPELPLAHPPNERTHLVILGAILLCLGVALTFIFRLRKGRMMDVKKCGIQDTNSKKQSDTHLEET

[3] = target: huEGFR on the cell surface (3T3^huEGFR, wild-type HEK293 (EGFR+), A431 cells) (human) (UniProt P00533); experiment: flow cytometry on 3T3^huEGFR cells, PE-conjugated anti-huEGFR mAb; histogram peak at about 2e3; parental 3T3 cells: 176 printed
[4] = target: huEGFR on the cell surface (3T3^huEGFR, wild-type HEK293 (EGFR+), A431 cells) (human) (UniProt P00533); experiment: flow cytometry on 3T3^huEGFR cells, PE-conjugated anti-huEGFR mAb; second number of the panel, given to the second cell line of the key (narrow histogram) [cont.) g, upper panel]
[5] = target: huEGFR on the cell surface (3T3^huEGFR, wild-type HEK293 (EGFR+), A431 cells) (human) (UniProt P00533); experiment: flow cytometry on MDA-MB-231 cells, PE-conjugated anti-huEGFR mAb; first number of the panel, given to the first cell line of the key (broad, most shifted histogram) [cont.) g, upper panel]

## anti-huCD32 mAb (clone FUN-2); the sheet prints only the axis label huFcγRIIb (antibody)
[1]
  MFI: 1040

## anti-huPD-L1 APC-conjugated mAb (clone MIH1); the sheet prints only the axis label PD-L1 (antibody)
[2]
  MFI: 3260

## anti-huEGFR PE-conjugated mAb (clone EGFR.1); the sheet prints only the axis label huEGFR (antibody)
[3]
  MFI: 1730
[4]
  MFI: 1820
[5]
  MFI: 5820
